± gives the standard deviation.
Assay: protein stability index of a GFP-peptide fusion (GPS, HEK-293T) (PSI 1-6); higher = more stable
Details: c terminus: a fixed tail appended
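Note: 24-mer peptide tiles fused after GFP, lentivirally expressed, FACS-sorted into six equal bins by GFP/DsRed ratio, decoded by Illumina sequencing, PSI is the read-weighted mean bin number.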

KDPRDPEESKEPKEEKQRRRCKPK [GNAS]
protein stability index (treatment: DMSO): 5.37 ± 0.26 | protein stability index (treatment: MLN4924 1 uM, 8 h): 5.26 ± 0.3

QMLWELVLLGEPLVVMAPSPSESS [DENND6A]
protein stability index (treatment: DMSO): 2.33 ± 0.72 | protein stability index (treatment: MLN4924 1 uM, 8 h): 2.17 ± 0.49

LEEENKERAKREMVMYSITVAFWL [MFF]
protein stability index (treatment: DMSO): 2.29 ± 0.55 | protein stability index (treatment: MLN4924 1 uM, 8 h): 2.82 ± 0.46

RFLLYTNENPNNFQILLLSDPSTI [PNLIPRP1]
protein stability index (treatment: DMSO): 2.94 ± 1 | protein stability index (treatment: MLN4924 1 uM, 8 h): 2.57 ± 0.61

APPRRLRSRKVSCPLTRSNGDLSR [FCHO1]
protein stability index (treatment: DMSO): 4.16 ± 0.17 | protein stability index (treatment: MLN4924 1 uM, 8 h): 4.34 ± 0.062

QLIGSSNLFVMQVEMDIYTALKKW [GMCL1]
protein stability index (treatment: DMSO): 2.57 ± 0.61 | protein stability index (treatment: MLN4924 1 uM, 8 h): 2.28 ± 0.81

GAQVNMPADSFESPLTLAACGGHV [ANKRD17]
protein stability index (treatment: DMSO): 4.23 ± 0.23 | protein stability index (treatment: MLN4924 1 uM, 8 h): 4.24 ± 0.12

MMSVNGQAKTHTDSSEKELEPEAA [ACBD3]
protein stability index (treatment: DMSO): 5.45 ± 0.21 | protein stability index (treatment: MLN4924 1 uM, 8 h): 5.38 ± 0.23

APGFGEDVPNRLVDNIDMIDGDGD [BEX5]
protein stability index (treatment: DMSO): 5.5 ± 0.23 | protein stability index (treatment: MLN4924 1 uM, 8 h): 5.59 ± 0.19

TLQPPEFLYSHGVPRTLSPHQYHS [TBX5]
protein stability index (treatment: DMSO): 2.83 ± 0.14 | protein stability index (treatment: MLN4924 1 uM, 8 h): 3.06 ± 0.12

ELQNQLAACTRALESSEELLETAN [FSD1]
protein stability index (treatment: DMSO): 4.24 ± 0.37 | protein stability index (treatment: MLN4924 1 uM, 8 h): 4.37 ± 0.39

SVLVILISIVIFCLETLPEFRDDR [KCNA4]
protein stability index (treatment: DMSO): 2.99 ± 0.29 | protein stability index (treatment: MLN4924 1 uM, 8 h): 2.96 ± 0.5

IRRFLSAFHEPQVGLIQAAQQLLC [DFFB]
protein stability index (treatment: DMSO): 2.18 ± 0.38 | protein stability index (treatment: MLN4924 1 uM, 8 h): 2.14 ± 0.17

FPRDHTSLALVQNGDVSAPSAILR [ANKRD40]
protein stability index (treatment: DMSO): 3.72 ± 0.34 | protein stability index (treatment: MLN4924 1 uM, 8 h): 3.97 ± 0.2

LDQLLDMPAAGLAVQLRHAWNPED [SPSB4]
protein stability index (treatment: DMSO): 3.44 ± 0.28 | protein stability index (treatment: MLN4924 1 uM, 8 h): 3.68 ± 0.16

WKYILLGLADVEANYVIVRAYQYT [SLC35F2]
protein stability index (treatment: DMSO): 2.77 ± 0.66 | protein stability index (treatment: MLN4924 1 uM, 8 h): 2.86 ± 0.26

SKLASNGTPMGTFAPLWEVFRVSS [FCHO1]
protein stability index (treatment: DMSO): 2 ± 0.3 | protein stability index (treatment: MLN4924 1 uM, 8 h): 2.26 ± 0.22

ILVYDIANRWSFDGIDRWIKEIDE [RAB40B]
protein stability index (treatment: DMSO): 2.11 ± 0.57 | protein stability index (treatment: MLN4924 1 uM, 8 h): 1.93 ± 0.31

LSQLRVLCCEWLRPEKHTKEQILE [ZNF232]
protein stability index (treatment: DMSO): 2.37 ± 0.35 | protein stability index (treatment: MLN4924 1 uM, 8 h): 2.2 ± 0.22

RNQCRYCRLKKCFRAGMKKEAVQN [HNF4A]
protein stability index (treatment: DMSO): 2.9 ± 0.33 | protein stability index (treatment: MLN4924 1 uM, 8 h): 3.19 ± 0.45

LNGSSQPTTRNYPELNNNQYNRSS [CDC14A]
protein stability index (treatment: DMSO): 4.19 ± 0.17 | protein stability index (treatment: MLN4924 1 uM, 8 h): 4.34 ± 0.09

LSFYNARTKQVLHTFKTRFTQPLL [FSD1]
protein stability index (treatment: DMSO): 2.45 ± 0.6 | protein stability index (treatment: MLN4924 1 uM, 8 h): 2.43 ± 0.6

PKDIMTNTHAKSILNSMNSLRKSN [KLHL12]
protein stability index (treatment: DMSO): 3.48 ± 0.099 | protein stability index (treatment: MLN4924 1 uM, 8 h): 3.73 ± 0.34

TGVELAPRSAEPGYLVTKVVAVDR [PCDHGA10]
protein stability index (treatment: DMSO): 3.94 ± 0.34 | protein stability index (treatment: MLN4924 1 uM, 8 h): 3.93 ± 0.084

SGASPKESTNPEKAHETLHQSLSL [CDC25A]
protein stability index (treatment: DMSO): 4.95 ± 0.12 | protein stability index (treatment: MLN4924 1 uM, 8 h): 4.83 ± 0.11

GTDIVRGCDPLVKPVGRQACDLQP [ADAMTSL2]
protein stability index (treatment: DMSO): 4.08 ± 0.22 | protein stability index (treatment: MLN4924 1 uM, 8 h): 4.22 ± 0.059

ILPKQSRKSMLDAGPDSWGSDAEQ [LCOR]
protein stability index (treatment: DMSO): 4.51 ± 0.15 | protein stability index (treatment: MLN4924 1 uM, 8 h): 4.55 ± 0.21

PFGESNGNGVHVCNVKYKRWALLS [KLHDC10]
protein stability index (treatment: DMSO): 2.08 ± 0.22 | protein stability index (treatment: MLN4924 1 uM, 8 h): 2.26 ± 0.33

KKKPGTAMCVGCGSQIHDQFILRV [ISL2]
protein stability index (treatment: DMSO): 2.36 ± 0.37 | protein stability index (treatment: MLN4924 1 uM, 8 h): 2.23 ± 0.29

TTNVGRYPVGRFPSLHVVKVLLDC [FEM1A]
protein stability index (treatment: DMSO): 2.52 ± 0.4 | protein stability index (treatment: MLN4924 1 uM, 8 h): 2.48 ± 0.27

RRLLSYCKGRDHGVLDALHVLEGL [ZSWIM9]
protein stability index (treatment: DMSO): 2.03 ± 0.21 | protein stability index (treatment: MLN4924 1 uM, 8 h): 2.16 ± 0.3

TGIVSVAFLLLPLPDELGSQLPQV [MOSPD3]
protein stability index (treatment: DMSO): 2.75 ± 0.59 | protein stability index (treatment: MLN4924 1 uM, 8 h): 2.72 ± 0.86

VVKLLVSHGANVNHTTVTNSTPLR [FEM1B]
protein stability index (treatment: DMSO): 2.25 ± 0.26 | protein stability index (treatment: MLN4924 1 uM, 8 h): 2.29 ± 0.27

VELLPPAPKGKGRKPAAGAQSAGT [BRD3]
protein stability index (treatment: DMSO): 4.58 ± 0.3 | protein stability index (treatment: MLN4924 1 uM, 8 h): 4.87 ± 0.42

VWFGGREHVLMFAKLALYPCASLL [TMEM175]
protein stability index (treatment: DMSO): 2.77 ± 0.26 | protein stability index (treatment: MLN4924 1 uM, 8 h): 3.18 ± 0.27

SVTEYRLDGHTISDLSRSSRGELI [MYBL2]
protein stability index (treatment: DMSO): 3.67 ± 0.41 | protein stability index (treatment: MLN4924 1 uM, 8 h): 3.67 ± 0.38

LVYLGDLSRYQNELAGVDTELLAE [SMG5]
protein stability index (treatment: DMSO): 2.51 ± 0.2 | protein stability index (treatment: MLN4924 1 uM, 8 h): 2.74 ± 0.11

DSTWLLLRRIRAESGTKGLFAGFL [SLC25A39]
protein stability index (treatment: DMSO): 2.63 ± 0.67 | protein stability index (treatment: MLN4924 1 uM, 8 h): 2.58 ± 0.53

IKIIKNKKAFLNQAQIELRLLELM [DYRK1B]
protein stability index (treatment: DMSO): 2.75 ± 0.47 | protein stability index (treatment: MLN4924 1 uM, 8 h): 2.6 ± 0.43

SDTESTDLPSSTPVANSGTKPKTT [DLC1]
protein stability index (treatment: DMSO): 5.47 ± 0.26 | protein stability index (treatment: MLN4924 1 uM, 8 h): 5.49 ± 0.22

VAYRSLGRFEQLGKTAASWCLHVN [FSD1]
protein stability index (treatment: DMSO): 2.6 ± 0.6 | protein stability index (treatment: MLN4924 1 uM, 8 h): 2.2 ± 0.36

GDVLLDETLKHIKATEPTETVQTW [GOLPH3L]
protein stability index (treatment: DMSO): 4.41 ± 0.27 | protein stability index (treatment: MLN4924 1 uM, 8 h): 4.45 ± 0.26

RTTVHDKSAHQTHSSWTPPNAQYW [DNAJC4]
protein stability index (treatment: DMSO): 2.99 ± 0.32 | protein stability index (treatment: MLN4924 1 uM, 8 h): 3.02 ± 0.33

EGPSVVKRPAPRTAPRQEKHERTH [SPRY1]
protein stability index (treatment: DMSO): 5.17 ± 0.29 | protein stability index (treatment: MLN4924 1 uM, 8 h): 5.13 ± 0.2

AFHINKGLVKKYMNSLLIGELSPE [FADS1]
protein stability index (treatment: DMSO): 2.45 ± 0.47 | protein stability index (treatment: MLN4924 1 uM, 8 h): 2.32 ± 0.26

RYEEANNNQYSEGVQREAQRIALR [KMT2E]
protein stability index (treatment: DMSO): 4.3 ± 0.25 | protein stability index (treatment: MLN4924 1 uM, 8 h): 4.59 ± 0.2

SDGRQDSPAGELPKTVQQPTESEP [MATN2]
protein stability index (treatment: DMSO): 5.51 ± 0.24 | protein stability index (treatment: MLN4924 1 uM, 8 h): 5.57 ± 0.35

EEEKEWAFEESKIDEHHFVAVALR [AASDHPPT]
protein stability index (treatment: DMSO): 3.73 ± 0.37 | protein stability index (treatment: MLN4924 1 uM, 8 h): 3.84 ± 0.42

IDGIQAIYGRSQNPVQPIGPQTPK [MMP1]
protein stability index (treatment: DMSO): 3.97 ± 0.074 | protein stability index (treatment: MLN4924 1 uM, 8 h): 4.07 ± 0.36

AAINSIYSNTDANILFYVVGLRNT [GLT8D2]
protein stability index (treatment: DMSO): 2.97 ± 0.91 | protein stability index (treatment: MLN4924 1 uM, 8 h): 2.75 ± 0.73

ERLQAIAEKRKRQAEIENKRRQLE [PALM]
protein stability index (treatment: DMSO): 3.74 ± 0.16 | protein stability index (treatment: MLN4924 1 uM, 8 h): 3.73 ± 0.27

RVFQNRFSTQYRCFSVSMLAGPND [UFD1]
protein stability index (treatment: DMSO): 2.38 ± 0.34 | protein stability index (treatment: MLN4924 1 uM, 8 h): 2.3 ± 0.26

FCMFYAVLGIPLTLVMFQSLGERM [KCNK9]
protein stability index (treatment: DMSO): 3.7 ± 0.32 | protein stability index (treatment: MLN4924 1 uM, 8 h): 2.95 ± 0.31

EFEAVVRQAELAIERCIFPERIYQ [PI4K2A]
protein stability index (treatment: DMSO): 2.43 ± 0.37 | protein stability index (treatment: MLN4924 1 uM, 8 h): 2.33 ± 0.41

FFSVIFMTVGILSNSLAIAILMKA [PTGFR]
protein stability index (treatment: DMSO): 3.12 ± 0.26 | protein stability index (treatment: MLN4924 1 uM, 8 h): 2.75 ± 0.5

TVEKPGGKKVAVVLMDTQGAFDSQ [ATL3]
protein stability index (treatment: DMSO): 4.18 ± 0.13 | protein stability index (treatment: MLN4924 1 uM, 8 h): 4.16 ± 0.22

DFANTIPGHGGIMDRFDCQYLMAT [CDS1]
protein stability index (treatment: DMSO): 2.42 ± 0.21 | protein stability index (treatment: MLN4924 1 uM, 8 h): 2.63 ± 0.42

FTMFLNLFGEKLSGTDAEETILNA [MYL5]
protein stability index (treatment: DMSO): 2.12 ± 0.37 | protein stability index (treatment: MLN4924 1 uM, 8 h): 2.21 ± 0.2

TPQEPWPGPTAPSPTSRPPWAVDP [PDLIM7]
protein stability index (treatment: DMSO): 4.19 ± 0.21 | protein stability index (treatment: MLN4924 1 uM, 8 h): 4.28 ± 0.093

SVSLNKTARPFGAPPPADSAPQQN [PDLIM7]
protein stability index (treatment: DMSO): 4.42 ± 0.11 | protein stability index (treatment: MLN4924 1 uM, 8 h): 4.46 ± 0.13

RDAAGKPQRPRSAPRTSSCAERLQ [FCHO1]
protein stability index (treatment: DMSO): 4.75 ± 0.15 | protein stability index (treatment: MLN4924 1 uM, 8 h): 4.68 ± 0.098

MQPPPPGPLGDCLRDWEDLQQDFQ [TMEM120A]
protein stability index (treatment: DMSO): 4.86 ± 0.2 | protein stability index (treatment: MLN4924 1 uM, 8 h): 4.66 ± 0.2

FCEELESMIQEQFKKGKNPTGLLA [ADD1]
protein stability index (treatment: DMSO): 3.9 ± 0.2 | protein stability index (treatment: MLN4924 1 uM, 8 h): 3.81 ± 0.18

PHIYGARIKGVEVFCPLDPPPPYE [FAM189A2]
protein stability index (treatment: DMSO): 2.96 ± 0.17 | protein stability index (treatment: MLN4924 1 uM, 8 h): 3.04 ± 0.19

MYSVEITVEKDKVTGETRVLSSTT [PALM]
protein stability index (treatment: DMSO): 2.93 ± 0.21 | protein stability index (treatment: MLN4924 1 uM, 8 h): 3.19 ± 0.16

Reference: the supplement of paper PMC10567573
